Reference: patent US20130245224A1
“And” between values parts separate entries of the source, which are not always exact repeats. Equal entries are not always repeated.

Key:
[1] = molecular target: Gammanorm 165 mg/ml (Octapharma), diluted to 1 mg/ml in Equilibration buffer; test: column breakthrough, ligand on agarose, residence time 2.4 min
[2] = molecular target: Gammanorm 165 mg/ml (Octapharma), diluted to 1 mg/ml in Equilibration buffer; test: column breakthrough, ligand on agarose, residence time 6.0 min

Qb5 (dynamic binding capacity at 5% breakthrough) [1]: 28.5 mg/ml resin and 29.9 mg/ml resin
Qb10 (dynamic binding capacity at 10% breakthrough) [1]: 31.4 mg/ml resin and 32.2 mg/ml resin
Qb80 (dynamic binding capacity at 80% breakthrough) [1]: 43.8 mg/ml resin and 46.1 mg/ml resin
Qb5 (dynamic binding capacity at 5% breakthrough) [2]: 38.1 mg/ml resin and 38.5 mg/ml resin
Qb10 (dynamic binding capacity at 10% breakthrough) [2]: 40.6 mg/ml resin and 40.4 mg/ml resin
Qb80 (dynamic binding capacity at 80% breakthrough) [2]: 46.7 mg/ml resin and 47.1 mg/ml resin
Substance: Regular Z2: ligand dimer containing two copies of protein Z (SEQ ID No. 3 but without the P57I substitutions) (designed binder)
